Measured values published in patent publication US6670160B2, “α1,2-fucosyltransferase” (priority 1998, dated 2003).
Where “and” joins values, the source holds several entries; their conditions need not be identical. Equal values may be shown once.

Assays:
Format in all cases: biochemical
[1] = Reaction products by capillary electrophoresis, TMR-labeled acceptor Type 1; conditions: acceptor Type 1 labeled with TMR; authentic product H type 1
From the text: (§1) The reaction products synthesized from different acceptors by the Hp α1,2 FucT were further characterized by capillary electrophoresis with laser-induced fluorescence detection. The reaction mixture contained the overproduced UA802 α1,2 FucT protein (from pGEMI6 clone), GDP-fucose, and different acceptors labeled with tetramethylrhodamine (TMR). The results (FIG. 7) confirmed the data from the enzyme assay using radioactive labeled GDP-fucose (Table 3B) by identifying the products of the reactions.

[2] = Fucosyltransferase assay (GDP-[3H]fucose), acceptor Le^a
Description: (§2) In a typical experiment, E. coli CLM4 (pGP1-2) cells haboring a plasmid carrying an H. pylori fucT gene (pBKHp763fucT39, pGEMH2, pGEMI6 or pGEMB3) were grown in 25 ml liquid LB medium with appropriate antibiotics (kanamycin and ampicillin) at 30° C. to an optical density of 0.5-0.7 at 600 nm. After being collected, the cells were washed once with M9 medium, resuspended in 5 ml of supplemented M9 medium, and farther incubated at 30° C. for 1 h. To induce the expression of the fucT gene, the cell culture was shifted to 42° C. by adding 5 ml prewarmed (55° C.) supplemented M9 medium. After incubation at 42° C. for 15 min, rifampicin was added to a final concentration of 200 μg/ml, and cell growth was continued at 42° C. for 20 min.
(§3) For analysis of the protein on SDS-PAGE, a small aliquot (0.5 ml) of the cell culture was taken, and 2.5 μl of [^35S]-methionine (4.35×10^13 Bq/mmol, 3.7×10^8 Bq/ml, NEN™, Boston, Mass.) was added. After further growth at 30° C. for 30 min, the cells were harvested, resuspended in 100 μl sample buffer (50 mM Tris-HCl, pH6.8, 1% (w/v) SDS, 20 mM EDTA, 1% (v/v) mercaptoethanol, 10% (v/v) glycerol), and boiled for 3 min before loading on to the gel. For the preparation of the sample for the enzyme assay, the remaining part (major aliquot, 9.5 ml) of the cell culture after induction was further incubated at 30° C. for 30 min, then harvested. The cells were washed with 1.5 ml of 20 mM HEPES (pH 7.0), and resuspended in 1.5 ml of this buffer supplemented with 0.5 mM PMSF.
(§4) Preparation of cell lysates or cell extracts for the fucosyltransferase assay. […]
(§5) Assays of Hp α1,2 and a 1,3 FucT activities were carried out according to the method described by Chan et al. (1995, Glycobiology 5:683-688) with some modifications. […] For calculation of the specific activity of the enzyme (micro-units per milligram protein), protein concentrations of the cell extracts were determined with a BCA protein assay kit (Pierce, Rockford, Ill.) using BSA as a standard according to the supplier's instructions.

[3] = Reaction products by capillary electrophoresis, TMR-labeled acceptor Le^X; conditions: acceptor Le^X labeled with TMR; peak co-migrated with standard Le^Y
From the text: as §1

[4] = Fucosyltransferase assay (GDP-[3H]fucose), acceptor Type 1; conditions: for total activity: from 25 ml cell culture
Description: as §2, §3
(§6) Preparation of cell lysates or cell extracts for the fucosyltransferase assay. The E. coli cells containing overproduced Hp FucT proteins, which were in HEPES buffer with PMSF as described above, were disrupted with a French press at 7000 lb/in^2 at 4° C. The cell lysates were used directly for enzyme assays. For determining the location of the enzyme activities, the cytoplasmic and membrane fractions were separated as follows. The cell lysates were centrifuged at 13,000× g at 4° C. for 10 min. The cell debris were discarded and the supernatant was subjected to ultracentrifugation at 128,000× g (Beckman TL100/rotor 100.2) at 4° C. for 1 h. The supernatant was collected as the cytoplasmic fraction. The membrane pellets were resuspended in a small volume of the same buffer and treated with 1 M NaCl.
(§7) Assays of Hp α1,2 and a 1,3 FucT activities were carried out according to the method described by Chan et al. (1995, Glycobiology 5:683-688) with some modifications. Reactions were conducted at 37° C. for 20 min in a volume of 20 μl containing 1.8 mM acceptor, 50 μM GDP-fucose, 60000 dpm GDP-[^3H]fucose, 20 mM HEPES buffer (pH7.0), 20 mM MnCl2, 0.1 M NaCl, 35 mM MgCl2, 1 mM ATP, 5 mg/ml BSA, and 6.2 μl of the enzyme preparation. The acceptors used in this study were: LacNAc [βGal 1-4 βGlcNAc], Le^X [βGal 1-4 (α Fuc1-3) βGlcNAc], Type 1 [[…] 1-3 βGlcNAc], and Le^a [βGal 1-3 (α Fuc1-4) βGlcNAc]. GDP-[^3H]fucose (1.9×10^11 Bq/ml/mmol) was obtained from American Radiolabeled Chemicals Inc. (St. Louis, Mo.). Sep-Pak Plus C-18 reverse-phase cartridges were purchased from Waters (Mississauga, ON). For calculation of the specific activity of the enzyme (micro-units per milligram protein), protein concentrations of the cell extracts were determined with a BCA protein assay kit (Pierce, Rockford, Ill.) using BSA as a standard according to the supplier's instructions.

[5] = Reaction products by capillary electrophoresis, TMR-labeled acceptor LacNAc; conditions: acceptor LacNAc labeled with TMR; expected product H type 2
From the text: as §1

[6] = Fucosyltransferase assay (GDP-[3H]fucose), acceptor LacNAc
Description: as §2, §3, §4, §5

[7] = Reaction products by capillary electrophoresis, TMR-labeled acceptor Le^a; conditions: acceptor Le^a labeled with TMR; authentic product Le^b
From the text: as §1

[8] = Fucosyltransferase assay (GDP-[3H]fucose), acceptor Le^X; conditions: for total activity: from 25 ml cell culture
Description: as §2, §3, §6, §7

[9] = acceptor Type 1, cytoplasm fraction
[10] = acceptor Le^x, membrane fraction

B1: α1,2FucT (UA802): H. pylori UA802 α1,2-fucosyltransferase (SEQ ID NO:2), overexpressed in E. coli from plasmid pGEMI6 (protein)
chain: MAFKVVQICGGLGNQMFQYAFAKSLQKHLNTPVLLDTTSFDWSNRKMQLELFPIDLPYANAKEIAIAKMQHLPKLVRDALKYIGFDRVSQEIVFEYEPKLLKPSRLTYFFGYFQDPRYFDAISSLIKQTFTLPPPPENNKNNNKKEEEYQRKLSLILAAKNSVFVHIRRGDYVGIGCQLGIDYQKKALEYMAKRVPNMELFVFCEDLKFTQNLDLGYPFTDMTTRDKEEEAYWDMLLMQSCKHGIIANSTYSWWAAYLMENPEKIIIGPKHWLFGHENILCKEWVKIESHFEVKSQKYNA
- reaction product in electropherogram [1]: new peaks co-migrating with authentic products
- activity compared to Le^X ([2]; acceptor Le^a versus Le^X): 2 fold
- specific activity ([2]; acceptor Le^a, proposed product Le^b, E. coli whole cell extract): 301 ± 13 μU/mg
- relative activity ([2]; acceptor Le^a, relative to UA802 α1,2 FucT on its best substrate Type 1): 97%
- reaction product in electropherogram [3]: a small new peak was produced
- specific activity ([4]; acceptor Type 1, proposed product H type 1, E. coli whole cell extract): 309 ± 28 μU/mg
- relative activity (percentage of the total activity) [4, 9]: 100%
- specific activity ([4]; acceptor Type 1, cytoplasm fraction of E. coli CLM4 (pGP1-2, pGEMI6)): 78 μU/mg protein
- total activity [4, 9]: 108 μU
- specific activity ([4]; acceptor Type 1, membrane fraction of E. coli CLM4 (pGP1-2, pGEMI6)): 8 μU/mg protein
- total activity ([4]; acceptor Type 1, membrane fraction): 3 μU
- relative activity (percentage of the total activity) ([4]; acceptor Type 1, membrane fraction, listed as H. pylori α1,2 FucT): 3%
- relative activity (percentage of the total activity) ([4]; acceptor Type 1, membrane fraction, listed as Hp α1,2 FucT): less than 3%
- relative activity ([4]; acceptor Type 1, relative to UA802 α1,2 FucT on its best substrate Type 1): 100%
- activity compared to Le^X ([4]; acceptor Type 1 versus Le^X): 2 fold
- reaction product in electropherogram [5]: no reaction product representing H type 2 was observed
- specific activity ([6]; E. coli whole cell extract containing the overexpressed FucT protein): 14 ± 8 μU/mg
- α1,2 FucT activity (in words) ([6]; enzyme from pGEMI6): almost no activity was detected
- relative activity ([6]; relative to UA802 α1,2 FucT on its best substrate Type 1): 4.5%
- reaction product in electropherogram [7]: new peaks co-migrating with authentic products
- specific activity ([8]; acceptor Le^X, proposed product Le^Y, E. coli whole cell extract): 150 ± 33 μU/mg
- α1,2 FucT activity (in words) ([8]; acceptor Le^X, enzyme from pGEMI6): considerable activity was observed
- activity in the membrane fraction (in words) ([8]; acceptor Le^X, membrane fraction): no detectable activity
- relative activity ([8]; acceptor Le^X, relative to UA802 α1,2 FucT on its best substrate Type 1): 49%
- relative activity (percentage of the total activity) ([8]; acceptor Le^x, cytoplasm fraction): 100%
- specific activity ([8]; acceptor Le^x, cytoplasm fraction of E. coli CLM4 (pGP1-2, pGEMI6), listed as H. pylori α1,2 FucT): 41 μU/mg protein and 38 μU/mg protein
- total activity ([8]; acceptor Le^x, cytoplasm fraction, listed as H. pylori α1,2 FucT): 54 μU and 49 μU
- relative activity (percentage of the total activity) [8, 10]: 0%
- specific activity ([8]; acceptor Le^x, membrane fraction of E. coli CLM4 (pGP1-2, pGEMI6)): 0 μU/mg protein
- total activity [8, 10]: 0 μU
